“Also recorded” adds a separate entry of the source.
T1: MMP1 (Homo sapiens, UniProt P03956)
T1 sequence (P03956 100-469): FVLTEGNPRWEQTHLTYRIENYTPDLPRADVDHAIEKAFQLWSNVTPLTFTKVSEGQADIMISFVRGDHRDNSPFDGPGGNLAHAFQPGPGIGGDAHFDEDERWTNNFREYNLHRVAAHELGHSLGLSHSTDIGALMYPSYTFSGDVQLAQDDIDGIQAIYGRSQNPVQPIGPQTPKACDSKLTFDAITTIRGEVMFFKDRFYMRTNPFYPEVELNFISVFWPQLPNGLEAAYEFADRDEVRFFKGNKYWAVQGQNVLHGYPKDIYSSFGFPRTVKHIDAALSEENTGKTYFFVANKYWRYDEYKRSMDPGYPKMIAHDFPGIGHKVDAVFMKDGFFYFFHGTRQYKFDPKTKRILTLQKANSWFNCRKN

T2: cathepsin K (Homo sapiens, UniProt P43235)
T2 sequence (P43235 115-329): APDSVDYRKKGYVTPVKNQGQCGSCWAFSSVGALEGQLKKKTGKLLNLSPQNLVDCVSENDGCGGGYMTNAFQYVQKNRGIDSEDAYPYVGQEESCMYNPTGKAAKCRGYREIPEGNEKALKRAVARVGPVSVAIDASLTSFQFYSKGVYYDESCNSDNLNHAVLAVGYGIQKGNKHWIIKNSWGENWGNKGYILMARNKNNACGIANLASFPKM

T3: MMP2 (Homo sapiens, UniProt P08253)
T3 sequence (P08253 110-660): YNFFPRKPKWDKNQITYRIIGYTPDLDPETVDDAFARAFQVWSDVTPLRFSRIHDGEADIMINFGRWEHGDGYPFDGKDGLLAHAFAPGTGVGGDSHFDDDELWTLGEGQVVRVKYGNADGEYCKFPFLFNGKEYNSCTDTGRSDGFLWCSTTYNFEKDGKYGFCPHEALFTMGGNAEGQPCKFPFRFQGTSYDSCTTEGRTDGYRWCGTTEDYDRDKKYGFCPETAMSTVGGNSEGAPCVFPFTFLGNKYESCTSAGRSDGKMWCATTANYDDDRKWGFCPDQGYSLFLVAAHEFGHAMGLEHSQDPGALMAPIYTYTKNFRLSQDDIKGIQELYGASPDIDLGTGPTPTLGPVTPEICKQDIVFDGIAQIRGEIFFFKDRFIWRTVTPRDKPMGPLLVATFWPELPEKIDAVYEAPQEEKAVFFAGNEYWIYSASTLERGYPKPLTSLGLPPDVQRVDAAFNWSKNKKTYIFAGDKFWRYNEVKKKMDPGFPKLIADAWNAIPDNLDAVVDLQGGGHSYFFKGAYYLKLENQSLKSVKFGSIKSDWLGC


Columns and labels:
[1] = biological target: T1, MMP1; test: Enzymatic digestion test, MMP1; format: biochemical; conditions: 3 ug peptide, MMP1 5, 10, 50 ng, 37° C. 4 hours
Procedure: (§1) 3 ug of synthesized mdhFas-1-MMPsubstrate structure modified protein, together with MMP1 (5 ng, 10 ng and 50 ng), MMP2 (100 ng, 200 ng and 800 ng), MMP3 (10 ng, 50 ng and 100 ng), cathepsin D (5 ng, 10 ng and 50 ng), cathepsin L (100 ng, 200 ng and 800 ng), and cathepsin K (10 ng, 50 ng and 100 ng), was mixed with enzyme buffer (150 mM NaCl, 5 mM. CaCl2, 20 mM Tris-HCl pH7.5), and reacted at 37° C. for 4 hours. The resultant product was subjected to electrophoresis through 15% polyacrylamide gel, transferred to a Nitrocellulose Membrane (Schleicher & Schuell), blocked at room temperature for 1 hour with TBST solution containing 3% BSA (20 mmole/L Tris-HCl, 137 mmole//l NaCl, 0.1% Tween-20), washed TBST solution three times (each for 10 minutes), and reacted with primary antibody (anti-Histidine or anti-Bigh3) for 1 hour. The resultant product was washed with TBST solution three times (each for 10 minutes), reacted with a secondary antibody conjugated to horseradish peroxidase (HRP) for 1 hour, washed TBST solution three times (each for 10 minutes), and visualized by ECL (Amersham Biosciences, UK) so as to detect the change in the amount of mdhFas-1-MMPsubstrate-RGD structural peptide.

[2] = biological target: T2, cathepsin K; test: Enzymatic digestion test, cathepsin K; format: biochemical; conditions: 3 ug peptide, cathepsin K 10, 50, 100 ng, 37° C. 4 hours
Procedure: as §1

[3] = biological target: MMP3 (Homo sapiens, UniProt P08254); test: Enzymatic digestion test, MMP3; format: biochemical; conditions: 3 ug peptide, MMP3 10, 50, 100 ng, 37° C. 4 hours
Procedure: as §1

[4] = tested on: NIH3T3; test: βig-h3-mediated cell migration test (transwell), NIH3T3; format: cell-based, mouse; conditions: 7 hours
Procedure: In the lower compartment of a transwell filter having an 8 um hole size allowing cells to be migrated, βig-h3 was cultured at 4° C. for 12 to 14 hours and coated. In DMEM+0.5% BSA culture medium, NIH3T3 was introduced, and administered with MFK23, MFK24 or MFK25 at concentrations, followed by mixing. The resultant mixture was cultured at 37° C. for 30 minutes, inoculated into the upper chamber of the coated well, and cultured for 7 hours at 37° C. Then, the cells migrated to the lower compartment of the filter were fixed by paraformaldehyde, and strained by a crystal violet. The cells […] remaining in the upper chamber were wiped out and the number of cells migrated to the lower compartment was microscopically counted.

[5] = biological target: T3, MMP2; test: Enzymatic digestion test, MMP2; format: biochemical; conditions: 3 ug peptide, MMP2 100, 200, 800 ng, 37° C. 4 hours
Procedure: as §1

[6] = tested on: collagen-induced arthritis (CIA) mouse model; test: Arthritis therapeutic effect in CIA mouse (clinical arthritis index); format: in vivo
Procedure: A CIA mouse model having the similar characteristic to that of human rheumatoid arthritis was prepared according to the description in a known literature (Protocol for the successful induction of collagen-induced arthritis (CIA) and collagen antibody-induced arthritis (CAIA) in mice. Chondrex, Redmond, Wash.): Bovine type 2 collagen 100 ug was mixed with Freund's complete adjuvant, and hypodermically inoculated into the tail of the mouse. After 3 weeks, bovine type 2 collagen 100 ug was mixed with Freund's incomplete adjuvant, and inoculated again into the tail of the mouse. Then, the mouse was used in the experiment.
In order to find out the therapeutic effect of arthritis in a CIA model, for four weeks from the onset (the 23rd day) of arthritis following the second injection of the bovine type 2 collagen, MFK23 or MFK24 was daily injected into the abdominal cavity in doses of 0.1 mg/kg, 1 mg/kg, 10 mg/kg and 30 mg/kg. As a control group, the same amount of PBS was injected into the abdominal cavity. From the 23rd day to the 50th day, by using a Clinical arthritis index, the severity of arthritis was daily determined. The determination was based on the following data.
0; no symptom, 1; edema in one articulation or light edema, 2; severe edema in 2 or more articulations, 3; severe edema in most articulations, 4; severe edema in the whole of legs.

Chain of MMP3 (P08254 100-477, species assumed): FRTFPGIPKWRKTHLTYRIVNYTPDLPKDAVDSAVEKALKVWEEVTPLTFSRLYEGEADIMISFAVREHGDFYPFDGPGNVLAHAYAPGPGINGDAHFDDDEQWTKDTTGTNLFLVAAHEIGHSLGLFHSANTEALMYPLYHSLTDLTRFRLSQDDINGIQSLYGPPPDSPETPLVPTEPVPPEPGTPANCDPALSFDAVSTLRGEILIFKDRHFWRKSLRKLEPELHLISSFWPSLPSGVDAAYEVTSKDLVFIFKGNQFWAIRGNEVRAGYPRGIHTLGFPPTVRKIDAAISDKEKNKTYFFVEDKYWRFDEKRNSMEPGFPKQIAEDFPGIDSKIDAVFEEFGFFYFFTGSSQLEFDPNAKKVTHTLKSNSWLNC

| Molecule | cleavage through treatment with MMP-1 [1] | cleavage through treatment with cathepsin K [2] | cleavage through treatment with MMP-3 [3] | βig-h3-mediated cell migration [4] | cleavage through treatment with MMP-2 [5] | arthritis inhibiting effect (clinical arthritis index), in words ([6]; daily into the abdominal cavity) | concentration relative to conventional mdhFas-1 or MFK12 that shows a higher arthritis inhibiting effect [6] | arthritis inhibition (clinical arthritis index) ([6]; 0.1 mg/kg daily into the abdominal cavity, four weeks) |
| --- | --- | --- | --- | --- | --- | --- | --- | --- |
| MFK23: fusion peptide having sequential links of mdhFas-1, MMP2 substrate GPLGVRG (SEQ ID NO: 5), and QERGDSLA (SEQ ID NO: 10) (protein, MFK23) QAMPPEELNKLLANAKELTNILKYHIGDEILVSGGIGALVRLKSLQGDKLEVSSKNNVVSVNKEPVAETDIMEFGPLGVRGVDGQERGDSLAGLE | not cleaved | not cleaved | not cleaved | inhibited the cell migration; also recorded: concentration-dependently inhibited | concentration-dependently cleaved | excellent effect on arthritis | – | – |
| MFK24: fusion peptide having sequential links of mdhFas-1, MMP1 substrate GPQGIAG (SEQ ID NO: 6), and QERGDSLA (SEQ ID NO: 10) (protein, MFK24) QAMPPEELNKLLANAKELTNILKYHIGDEILVSGGIGALVRLKSLQGDKLEVSSKNNVVSVNKEPVAETDIMEFGPQGIAGVDGQERGDSLAGLE | concentration-dependently cleaved | not cleaved | not cleaved | inhibited the cell migration; also recorded: concentration-dependently inhibited | not cleaved | – | 1/100 | about 70% |
